{"source": "paper PMC10117725", "about": "“From an Hsp90 - binding protein to a peptide drug” (microLife, 2022)", "molecules": {"B1": {"name": "Lpl1: model Lpl lipoprotein of S. aureus, parent protein of the peptides (protein)", "chain": "CGKGNETKEDSKEEQIKKSFAITLDMYPIKNLEDLYDKEGYRDSEFKKGDKGMWTIYTDFAKSNKPGELDDEGMVLNLDRNTRTAKGHYFVTTFYRNGKLPDEKNYKIEMKNNKIILLDEVKDDKLKQKIENFKFFGQYANLKELRKYNNGDVSINENVPSYDVEYKMSNKDEIVKELRSRYNISTEKSPILKMHIDGDLKGSSVGYRKLEIDFSKRENSKLSVIEFLSYKPAKK", "modifications": "left off: His tag, end not stated, kept", "notes": "model Lpl lipoprotein of S. aureus, parent protein of the peptides"}}, "molecular_target": "T1, Hsp90α (Homo sapiens, UniProt P07900)", "T1 construct": "purchased Abcam", "format": "binding", "settings": "dot blot, 2 µg blotted on membrane, 20 µg recombinant Hsp90α at 4°C overnight, α-Hsp90α immunodetection", "procedure": "Two µg of each peptide was blotted (dot blot) directly on PDV nitrocellulose membrane and blocked with ROTI®Block (Carl Roth, Germany). After washing, the membrane was then incubated with 20 μg of recombinant Hsp90α (Abcam)/Lpl1-his protein at 4°C overnight. In case of interaction studies with Hsp90α, α-Hsp90α (produced in mouse, Abcam) was used as the primary antibody and for interaction studies with Lpl1-his, Anti-6X His tag antibody (also produced in mouse, Sigma-Aldrich, Germany) was used. Alkaline phosphatase conjugated goat-α-mouse IgG (Sigma-Aldrich, Germany) served as the secondary antibody. Detection was done using BCIP®/NBT solution (Sigma, Germany). Lpl1-his was isolated and purified as described in our previous paper (Tribelli et al. [2020])."}
{"molecule": "B1", "values": [{"measurement": "Interaction with Hsp90α", "result": "Yes"}]}
